What all share (assay): EMSA
On the technique in general: In EMSA bound probe runs differently from free probe, usually more slowly.

Series [1] concerns the target Hrq1;Pif1 (Saccharomyces cerevisiae;Saccharomyces …, UniProt Q05549;P07271 1-1077;1-859, |).
Series [2] has as its target T1, Hrq1 (Saccharomyces cerevisiae, UniProt Q05549 1-1077).
T1 sequence: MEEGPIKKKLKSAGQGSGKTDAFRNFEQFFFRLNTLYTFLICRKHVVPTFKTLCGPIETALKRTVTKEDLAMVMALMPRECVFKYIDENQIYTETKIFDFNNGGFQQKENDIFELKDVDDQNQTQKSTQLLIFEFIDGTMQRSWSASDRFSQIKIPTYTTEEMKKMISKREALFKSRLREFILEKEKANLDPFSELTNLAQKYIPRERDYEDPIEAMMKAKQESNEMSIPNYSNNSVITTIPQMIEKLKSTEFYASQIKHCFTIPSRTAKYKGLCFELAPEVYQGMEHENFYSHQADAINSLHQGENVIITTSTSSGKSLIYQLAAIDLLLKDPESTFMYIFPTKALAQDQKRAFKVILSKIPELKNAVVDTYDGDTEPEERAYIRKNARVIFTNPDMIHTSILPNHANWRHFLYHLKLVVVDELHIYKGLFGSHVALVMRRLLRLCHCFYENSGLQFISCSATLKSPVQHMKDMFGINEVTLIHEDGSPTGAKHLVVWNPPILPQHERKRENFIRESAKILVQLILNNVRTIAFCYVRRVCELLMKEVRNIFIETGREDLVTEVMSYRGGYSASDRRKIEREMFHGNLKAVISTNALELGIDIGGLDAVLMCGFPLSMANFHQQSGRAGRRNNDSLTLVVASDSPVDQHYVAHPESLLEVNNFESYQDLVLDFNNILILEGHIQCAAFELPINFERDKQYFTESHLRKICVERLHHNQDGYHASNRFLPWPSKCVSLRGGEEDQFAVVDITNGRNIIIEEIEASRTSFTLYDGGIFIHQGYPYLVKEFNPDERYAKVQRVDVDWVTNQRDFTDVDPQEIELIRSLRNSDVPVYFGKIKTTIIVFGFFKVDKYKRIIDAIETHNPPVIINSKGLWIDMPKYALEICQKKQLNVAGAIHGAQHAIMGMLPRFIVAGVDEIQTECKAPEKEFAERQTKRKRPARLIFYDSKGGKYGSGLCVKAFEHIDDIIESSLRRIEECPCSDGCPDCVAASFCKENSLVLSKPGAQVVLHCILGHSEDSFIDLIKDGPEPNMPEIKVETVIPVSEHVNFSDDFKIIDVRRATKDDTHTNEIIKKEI

Series [3] deals with T2, Hrq1-K318A (Saccharomyces cerevisiae, UniProt Q05549 1-1077, K318A).
T2 sequence: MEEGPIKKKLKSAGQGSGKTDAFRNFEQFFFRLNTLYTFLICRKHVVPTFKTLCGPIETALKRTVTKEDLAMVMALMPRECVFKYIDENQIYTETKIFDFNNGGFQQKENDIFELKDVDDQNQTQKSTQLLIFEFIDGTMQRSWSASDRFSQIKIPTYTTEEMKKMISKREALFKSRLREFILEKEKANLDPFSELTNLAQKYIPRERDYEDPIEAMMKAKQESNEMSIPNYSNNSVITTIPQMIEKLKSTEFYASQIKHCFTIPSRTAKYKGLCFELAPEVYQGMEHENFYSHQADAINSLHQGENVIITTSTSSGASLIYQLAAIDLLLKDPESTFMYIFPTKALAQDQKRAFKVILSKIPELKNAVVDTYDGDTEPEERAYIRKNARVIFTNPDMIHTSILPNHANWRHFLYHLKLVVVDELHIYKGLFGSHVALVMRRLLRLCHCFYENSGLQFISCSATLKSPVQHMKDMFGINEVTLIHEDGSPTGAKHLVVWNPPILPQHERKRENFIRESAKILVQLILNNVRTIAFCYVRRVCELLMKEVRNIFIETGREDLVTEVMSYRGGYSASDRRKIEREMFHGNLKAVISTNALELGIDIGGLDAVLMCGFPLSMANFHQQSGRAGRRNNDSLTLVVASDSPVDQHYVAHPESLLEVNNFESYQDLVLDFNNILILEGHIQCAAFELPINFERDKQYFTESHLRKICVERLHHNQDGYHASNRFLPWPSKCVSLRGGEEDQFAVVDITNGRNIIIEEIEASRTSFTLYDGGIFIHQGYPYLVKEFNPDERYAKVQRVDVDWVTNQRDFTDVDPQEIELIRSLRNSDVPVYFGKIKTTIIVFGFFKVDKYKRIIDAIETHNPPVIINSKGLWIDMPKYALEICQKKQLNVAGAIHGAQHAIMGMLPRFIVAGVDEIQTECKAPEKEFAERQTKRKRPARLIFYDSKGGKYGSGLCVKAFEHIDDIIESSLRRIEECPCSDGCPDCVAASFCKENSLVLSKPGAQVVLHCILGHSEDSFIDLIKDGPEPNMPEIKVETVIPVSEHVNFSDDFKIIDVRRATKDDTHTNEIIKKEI

Series [4] deals with T3, Pif1-K264A (Saccharomyces cerevisiae, UniProt P07271 1-859, K264A).
T3 sequence: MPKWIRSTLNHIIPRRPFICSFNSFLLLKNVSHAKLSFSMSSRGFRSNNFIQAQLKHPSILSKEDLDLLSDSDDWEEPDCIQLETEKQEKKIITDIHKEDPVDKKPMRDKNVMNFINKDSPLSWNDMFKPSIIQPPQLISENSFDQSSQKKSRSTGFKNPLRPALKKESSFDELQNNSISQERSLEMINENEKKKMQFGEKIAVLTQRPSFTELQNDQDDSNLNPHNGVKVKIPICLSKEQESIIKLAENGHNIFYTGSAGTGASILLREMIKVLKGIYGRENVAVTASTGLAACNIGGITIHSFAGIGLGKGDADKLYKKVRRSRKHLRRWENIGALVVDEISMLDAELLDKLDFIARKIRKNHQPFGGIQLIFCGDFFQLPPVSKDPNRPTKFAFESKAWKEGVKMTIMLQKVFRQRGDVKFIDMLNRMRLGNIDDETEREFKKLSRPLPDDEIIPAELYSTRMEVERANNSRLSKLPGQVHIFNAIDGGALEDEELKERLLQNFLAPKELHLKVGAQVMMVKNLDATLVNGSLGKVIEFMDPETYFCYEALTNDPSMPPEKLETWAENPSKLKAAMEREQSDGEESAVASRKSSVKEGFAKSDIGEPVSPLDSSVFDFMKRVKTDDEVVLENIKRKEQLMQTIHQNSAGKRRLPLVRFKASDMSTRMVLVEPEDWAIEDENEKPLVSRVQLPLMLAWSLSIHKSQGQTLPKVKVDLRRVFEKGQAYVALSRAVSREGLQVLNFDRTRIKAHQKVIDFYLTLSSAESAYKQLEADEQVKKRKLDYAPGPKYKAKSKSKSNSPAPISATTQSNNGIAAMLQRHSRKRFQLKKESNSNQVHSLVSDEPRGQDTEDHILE

Series [5] addresses T4, Pif1 (Saccharomyces cerevisiae, UniProt P07271 1-859).
T4 sequence: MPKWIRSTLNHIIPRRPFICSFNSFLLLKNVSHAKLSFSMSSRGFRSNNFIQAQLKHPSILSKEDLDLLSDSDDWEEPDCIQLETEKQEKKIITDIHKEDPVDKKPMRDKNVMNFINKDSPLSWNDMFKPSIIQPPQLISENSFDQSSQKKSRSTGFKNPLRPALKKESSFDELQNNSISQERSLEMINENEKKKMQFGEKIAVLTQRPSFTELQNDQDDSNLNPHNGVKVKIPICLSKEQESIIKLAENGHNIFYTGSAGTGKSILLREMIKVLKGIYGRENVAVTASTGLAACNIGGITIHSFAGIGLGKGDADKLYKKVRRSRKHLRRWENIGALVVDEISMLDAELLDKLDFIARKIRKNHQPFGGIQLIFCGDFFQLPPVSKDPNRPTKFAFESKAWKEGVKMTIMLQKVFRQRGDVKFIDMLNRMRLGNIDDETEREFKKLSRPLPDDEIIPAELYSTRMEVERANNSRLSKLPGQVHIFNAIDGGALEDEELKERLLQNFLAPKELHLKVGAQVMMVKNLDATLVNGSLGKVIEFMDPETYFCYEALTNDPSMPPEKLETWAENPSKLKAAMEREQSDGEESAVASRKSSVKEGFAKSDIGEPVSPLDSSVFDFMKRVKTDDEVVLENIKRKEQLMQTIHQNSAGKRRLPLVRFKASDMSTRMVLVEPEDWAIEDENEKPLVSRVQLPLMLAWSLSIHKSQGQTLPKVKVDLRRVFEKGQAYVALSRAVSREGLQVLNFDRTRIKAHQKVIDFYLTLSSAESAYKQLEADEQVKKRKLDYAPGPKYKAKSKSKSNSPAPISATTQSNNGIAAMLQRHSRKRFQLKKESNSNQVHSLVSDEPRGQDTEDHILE

GTGTGGGTGTGGTGTGGGTGTGGTGTGGGTGTGTGGTGTGGTGTGTGTGG (ssDNA) [Tel50]: in series [1], the binding result was “binds”.
In series [2], TTTTTTTTTTTTTTTTTTTTTTTTT (ssDNA, 3'-terminal T25 is inverted dT (3'-3' linkage, two 5' ends, no free 3' end)) [MB1429 poly(dT) 25 nt with 3' inverted dT] came in with a Kd of around 35 nM.
Consider CGCCATGCTGATCCGTGTGGTGTGTGTGGG (ssDNA) [Tel30], for which the Kd in series [2] came out at 16.1 nM; in series [3], 105 nM; in series [4], 41.2 nM; in series [5] it was 33.5 nM.
Take TGTGGTGTGTGTGGG (ssDNA) [Tel15]: the binding result in series [4] and in series [5] was “binds” throughout.
TTTTTTTTTTTTTTTTTTTTTTTTT (ssDNA) [MB463 poly(dT) 25 nt] registered a Kd in series [2] of around 35 nM.

Broadly, the Kd is a measure of binding affinity in units of concentration. High values mean lower affinity, low ones higher affinity.

For the origin of these results see article doi:10.1101/327320.
